Sequences and labels used below:
T1: human ferroportin (SLC40A1) fused in frame with GFP (human) (UniProt Q9NP59)
T1 sequence (looked up): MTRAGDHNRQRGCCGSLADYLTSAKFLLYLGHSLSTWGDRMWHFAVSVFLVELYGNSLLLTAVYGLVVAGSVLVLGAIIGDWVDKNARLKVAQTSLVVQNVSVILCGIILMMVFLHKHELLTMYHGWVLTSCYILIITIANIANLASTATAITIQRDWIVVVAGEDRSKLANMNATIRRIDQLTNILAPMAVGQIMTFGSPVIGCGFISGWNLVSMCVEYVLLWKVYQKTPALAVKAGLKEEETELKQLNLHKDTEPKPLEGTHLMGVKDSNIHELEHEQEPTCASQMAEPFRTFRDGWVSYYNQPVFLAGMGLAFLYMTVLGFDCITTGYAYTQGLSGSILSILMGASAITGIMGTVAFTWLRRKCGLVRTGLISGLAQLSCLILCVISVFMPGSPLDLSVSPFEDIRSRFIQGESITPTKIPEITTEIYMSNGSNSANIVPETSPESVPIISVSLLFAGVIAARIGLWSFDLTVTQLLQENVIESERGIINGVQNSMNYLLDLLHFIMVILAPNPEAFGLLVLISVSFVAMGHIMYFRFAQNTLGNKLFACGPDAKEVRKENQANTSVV

B1: Compd. ID 10 (peptide)
peptide: DTHXPCIKXKKC
modifications: not fully specified; N-term isovaleric acid; 4 Dpa; 8 Lys[1Peg2-1Peg2-Ahx-C18_Diacid]; 9 bhPhe; 11 (D)Lys; C-term NH2
B2: Compd. ID 22 (peptide)
peptide: DTHXPCIKXKRC
modifications: N-term isovaleric acid; 4 Dpa; 8 (D)Lys; 9 bhPhe; 10 Lys(Ahx-Palm); 11 Arg(Nitro); C-term NH2
B3: Compd. ID 20 (peptide)
peptide: DTHXPCIKXKKC
modifications: N-term isovaleric acid; 4 Dpa; 8 (D)Lys; 9 bhPhe; 10 Lys(Ahx-Palm); 11 (D)Lys; C-term NH2
B4: Seq. No. 350 (peptide)
peptide: DTHXXCIKFKKC
modifications: N-term isovaleric acid; 4 Dpa; 5 bhPro; 8 (D)Lys; 10 Lys(PEG12_Palm); 11 (D)Lys; C-term NH2
B5: Seq. No. 349 (peptide)
peptide: DTHXPCIKXKKC
modifications: N-term isovaleric acid; 4 Dpa; 8 (D)Lys; 9 bhPhe; 10 Lys(PEG12_Palm); 11 (D)Lys; C-term NH2
B6: Compd. ID 23 (peptide)
peptide: DTHXPCIKXKRC
modifications: N-term isovaleric acid; 4 Dpa; 8 (D)Lys; 9 bhPhe; 10 Lys(Ahx-Palm); 11 Arg(Dimethyl); C-term NH2
B7: Compd. ID 21 (peptide)
peptide: DTHXPCIKXKXC
modifications: not fully specified; N-term isovaleric acid; 4 Dpa; 8 (D)Lys; 9 bhPhe; 10 Lys(Ahx-Palm); 11 Spiral_Pip; C-term NH2
B8: Compd. ID 25 (peptide)
peptide: DTHXPCIKXKPC
modifications: N-term isovaleric acid; 4 Dpa; 8 (D)Lys; 9 bhPhe; 10 Lys(Ahx-Palm); 11 Pro(4-Amino); C-term NH2
B9: Compd. ID 26 (peptide)
peptide: DTHXPCIKXKXC
modifications: N-term isovaleric acid; 4 Dpa; 8 (D)Lys; 9 bhPhe; 10 Lys(Ahx-Palm); 11 Cav; C-term NH2
B10: Compd. ID 11 (peptide)
peptide: DTHXPCIKXKC
modifications: not fully specified; N-term isovaleric acid; 4 Dpa; 8 Lys[1Peg2-1Peg2-Ahx-C18_Diacid]; 9 bhPhe; 10 (D)Lys; C-term NH2
B11: RI-Mini Hepcidin (peptide)
peptide: FICIPFHTD
modifications: all residues D-amino acids (DPhe-DIle-DCys-DIle-DPro-DPhe-DHis-DThr-DAsp); Hy- at the N-terminus; C-term NH2
B12: Compd. ID 24 (peptide)
peptide: DTHXPCIKXKXC
modifications: N-term isovaleric acid; 4 Dpa; 8 (D)Lys; 9 bhPhe; 10 Lys(Ahx-Palm); 11 Cit; C-term NH2
B13: Ref. Cmpd. 1 (peptide)
peptide: Isovaleryl-DTHFPCIKFKPRSKGCK-NH2
modifications: disulfide 6-16 (inferred); not fully specified (residue 10); also: K10: Lys[PEG11-Palm] (Lys[2PEG11-Palm]

This note sets out measurements from patent publication US20240018189A1 (PROTAGONIST THERAPEUTICS, published 2024).

Starred links: 1 amine or outer side, 2 acyl side, 3 side chain; linkers in the order of their positions; H or OH if unused. Positions of bridges follow the written chain, without caps; N, C: chain ends. Non-standard residues stand in square brackets, D forms with d. Groups on a side chain read outwards from the residue. *: point of attachment. PEG12 = NCCOCCOCCOCCOCCOCCOCCOCCOCCOCCOCCOCCOCCC(=O)O; Phe(4-COOH) = N[C@@H](Cc1ccc(C(=O)O)cc1)C(=O)O; Phe(4-tBu) = CC(C)(C)c1ccc(C[C@H](N)C(=O)O)cc1; Phe(4-CN) = N#Cc1ccc(C[C@H](N)C(=O)O)cc1; Dip = N[C@H](C(=O)O)C(c1ccccc1)c1ccccc1; γGlu = O=C(O)[C@H](CCC(=O)[*:2])N[*:1]; 2Nal = N[C@@H](Cc1ccc2ccccc2c1)C(=O)O; AEF = NCCOc1ccc(C[C@H](N)C(=O)O)cc1; Palmitoyl = CCCCCCCCCCCCCCCC(=O)*; αMeF = C[C@](N)(Cc1ccccc1)C(=O)O; β3hF = N[C@H](CC(=O)O)Cc1ccccc1; Spiral_Pip = not defined here; Isovaleryl = CC(C)CC(=O)*; αMeC = C[C@](N)(CS)C(=O)O; Npc = nipecotic acid; Ahx = NCCCCCC(=O)O

The assay addresses T1, human ferroportin (SLC40A1) fused in frame with GFP (human). In words: cell-based or functional assay.
Turning to Isovaleryl-DTH[Dip][Npc]CI[dK][Phe(4-CN)]K([PEG12-Palmitoyl])KC-NH2 (disulfide 6-12 (inferred)) [Seq. No. 347], the IC50: FPN internalisation stood at 23 nM.
Regarding Isovaleryl-DTHFPCI[dK]FK([PEG12-Palmitoyl])K[αMeC]-NH2 (disulfide 6-12 (inferred)) [Seq. No. 355], the IC50: FPN internalisation came to 7.55 nM.
B1 showed an FPN EC50 of 3.05 nM.
As to B2, the FPN EC50 amounted to 30.1 nM.
On the same count and under the same terms, as for B3, the figure is 6.66 nM.
Isovaleryl-DTH[Dip][Npc]CI[dK]FK([PEG12-Palmitoyl])KC-NH2 (disulfide 6-12 (inferred)) [Seq. No. 360]: the IC50: FPN internalisation was 9.64 nM.
On the same count and under the same terms, as for B4, the figure is 0.8 nM.
Same read-out and setting: as for Isovaleryl-DTH[Dip][Npc]CI[dK][2Nal]K([PEG12-Palmitoyl])KC-NH2 (disulfide 6-12 (inferred)) [Seq. No. 357], the figure is 10.2 nM.
Isovaleryl-DTH[Dip][Npc]CI[dK][αMeF]K([PEG12-Palmitoyl])KC-NH2 (disulfide 6-12 (inferred)) [Seq. No. 348] yielded an IC50: FPN internalisation of 2.1 nM.
Same read-out and setting: as for Isovaleryl-DTHFP[αMeC]I[dK]FK([PEG12-Palmitoyl])KC-NH2 (disulfide 6-12 (inferred)) [Seq. No. 353], the figure is 21.5 nM; as for B5, 11.2 nM.
Molecule B6 registered an FPN EC50 of 41.6 nM.
The molecule Isovaleryl-DTH[Dip]PCI[β3hF]K([Ahx-Palmitoyl])[dK]C-NH2 (disulfide 6-11 (inferred)) [Compd. ID 18] gave an FPN EC50 of 10.8 nM.
Still for that read-out and setting: as for Isovaleryl-DTH[Dip][Npc]CI[dK][β3hF]K([γGlu-Palmitoyl])C[dK]-NH2 (disulfide 6-11 (inferred)) [Compd. ID 13], the figure is 16.1 nM.
The molecule Isovaleryl-DTHFP[αMeC]I[dK]FK([PEG12-Palmitoyl])K[αMeC]-NH2 (disulfide 6-12 (inferred)) [Seq. No. 354] had an IC50: FPN internalisation of 10 nM.
The same measure, in the same setting: as for Isovaleryl-DTHF[Npc]CI[dK]FK([PEG12-Palmitoyl])[dK]C-NH2 (disulfide 6-12 (inferred)) [Seq. No. 351], the figure is 13.2 nM.
For Isovaleryl-DTH[Dip]PCI[Spiral_Pip][β3hF]K([Ahx-Palmitoyl])[dK]C-NH2 (disulfide 6-12 (inferred); reading uncertain) [Compd. ID 27], the FPN EC50 was 26.3 nM.
With Isovaleryl-DTH[Dip][Npc]CIK([γGlu-Palmitoyl])[β3hF]C[dK]-NH2 (disulfide 6-10 (inferred)) [Compd. ID 19], the FPN EC50 came out at 4.56 nM.
Still for that read-out and setting: as for DTHXPCIKXKKC (N-term isovaleric acid; 4 Dpa; 8 (D)Lys; 9 bhPhe; 10 Lys[Palm]; C-term NH2) [Compd. ID 16], the figure is 5.85 nM.
Molecule Isovaleryl-DTH[Dip][Npc]CI[dK]FK([PEG12-Palmitoyl])[dK]C-NH2 (disulfide 6-12 (inferred)) [Seq. No. 352] came in with an IC50: FPN internalisation of 6.48 nM.
Molecule B7 showed an FPN EC50 of 37.5 nM.
In turn, Isovaleryl-DTH[Dip][Npc]CI[dK][β3hF]KC[dK]-NH2 (disulfide 6-11 (inferred); not fully specified (residue 10)) [Compd. ID 15] had an FPN EC50 above 3000 nM.
Still for that read-out and setting: to B8 belongs 25.7 nM; to B9, 32.2 nM.
On the same count and under the same terms, to B10 belongs 12.7 nM.
B11 registered a Potency EC50 (nM) above 10000 nM.
DTHXPCIKXKKC (N-term isovaleric acid; 4 Dpa; 8 (D)Lys; 9 bhPhe; 10 Lys(Ahx-Palm); C-term NH2) [Compd. ID 17] gave an FPN EC50 of 8.29 nM.
For the molecule Isovaleryl-DTH[Dip][Npc]CI[dK][Phe(4-COOH)]K([PEG12-Palmitoyl])KC-NH2 (disulfide 6-12 (inferred)) [Seq. No. 356], the IC50: FPN internalisation stood at 0.1 nM.
Still for that read-out and setting: to Isovaleryl-DTH[Dip][Npc]CI[dK][Phe(4-tBu)]K([PEG12-Palmitoyl])KC-NH2 (disulfide 6-12 (inferred)) [Seq. No. 359] belongs 8.57 nM.
Take B12: the FPN EC50 was 45.8 nM.
The molecule Isovaleryl-DTH[Dip][Npc]CI[dK][AEF]K([PEG12-Palmitoyl])KC-NH2 (disulfide 6-12 (inferred)) [Seq. No. 358] yielded an IC50: FPN internalisation above 3000 nM.
With Isovaleryl-DTH[Dip][Npc]CI[dK][β3hF]K([Ahx-Palmitoyl])C[dK]-NH2 (disulfide 6-11 (inferred)) [Compd. ID 12], the FPN EC50 is 11.5 nM.
In the case of B13, the FPN EC50 was found to be 30 nM and the Potency EC50 was 30 nM.
